2 molecules from publication PMC10322149 can be followed below.

The target in one assay is T1, Homer3, Q9NSC5.
T1 chain: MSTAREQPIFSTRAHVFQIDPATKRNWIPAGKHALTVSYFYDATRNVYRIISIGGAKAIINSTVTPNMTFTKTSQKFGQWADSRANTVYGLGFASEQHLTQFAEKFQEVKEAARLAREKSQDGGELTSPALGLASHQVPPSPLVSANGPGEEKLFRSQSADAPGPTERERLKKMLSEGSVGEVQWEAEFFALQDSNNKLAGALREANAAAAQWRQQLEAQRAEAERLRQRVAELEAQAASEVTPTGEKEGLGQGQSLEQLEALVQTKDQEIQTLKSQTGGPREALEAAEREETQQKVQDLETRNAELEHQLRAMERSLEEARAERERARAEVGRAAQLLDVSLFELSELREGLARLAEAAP
The assay can be described thus: SEC-MALS; FPLC coupled with static light scattering; Superose 12 10/300 GL; 50 mM Tris pH 8.0, 100 mM NaCl, 1 mM EDTA, 1 mM DTT; Homer3 and Pi-Homer3 at 50 μM. Particulars: remark: other sources report otherwise.

The target in assay [1] is T2, Pi-Homer3 (Homer3 phosphorylated by CaMKIIα), Q9NSC5.
T2 chain: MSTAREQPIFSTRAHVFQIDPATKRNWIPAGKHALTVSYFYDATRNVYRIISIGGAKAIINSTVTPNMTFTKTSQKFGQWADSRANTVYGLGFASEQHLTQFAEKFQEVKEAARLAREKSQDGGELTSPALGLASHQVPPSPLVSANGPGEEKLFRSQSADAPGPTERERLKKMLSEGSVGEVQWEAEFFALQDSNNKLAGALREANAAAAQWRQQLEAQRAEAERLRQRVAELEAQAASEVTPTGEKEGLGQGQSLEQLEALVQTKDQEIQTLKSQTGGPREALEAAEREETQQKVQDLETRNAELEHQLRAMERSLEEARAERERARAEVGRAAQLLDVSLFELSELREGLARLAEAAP
The assay is described as above. Particulars: remark: other sources report otherwise.

B1: Homer3, Q9NSC5 1-361 (natural protein)
chain: MSTAREQPIFSTRAHVFQIDPATKRNWIPAGKHALTVSYFYDATRNVYRIISIGGAKAIINSTVTPNMTFTKTSQKFGQWADSRANTVYGLGFASEQHLTQFAEKFQEVKEAARLAREKSQDGGELTSPALGLASHQVPPSPLVSANGPGEEKLFRSQSADAPGPTERERLKKMLSEGSVGEVQWEAEFFALQDSNNKLAGALREANAAAAQWRQQLEAQRAEAERLRQRVAELEAQAASEVTPTGEKEGLGQGQSLEQLEALVQTKDQEIQTLKSQTGGPREALEAAEREETQQKVQDLETRNAELEHQLRAMERSLEEARAERERARAEVGRAAQLLDVSLFELSELREGLARLAEAAP
A word on the stoichiometry N: it is a count of units in the complex or per binding partner. In the assay with Homer3, Q9NSC5, B1 displayed a stoichiometry N of 4.

B2: Pi-Homer3 (Homer3 phosphorylated by CaMKIIα), Q9NSC5 1-361 (natural protein)
chain: MSTAREQPIFSTRAHVFQIDPATKRNWIPAGKHALTVSYFYDATRNVYRIISIGGAKAIINSTVTPNMTFTKTSQKFGQWADSRANTVYGLGFASEQHLTQFAEKFQEVKEAARLAREKSQDGGELTSPALGLASHQVPPSPLVSANGPGEEKLFRSQSADAPGPTERERLKKMLSEGSVGEVQWEAEFFALQDSNNKLAGALREANAAAAQWRQQLEAQRAEAERLRQRVAELEAQAASEVTPTGEKEGLGQGQSLEQLEALVQTKDQEIQTLKSQTGGPREALEAAEREETQQKVQDLETRNAELEHQLRAMERSLEEARAERERARAEVGRAAQLLDVSLFELSELREGLARLAEAAP
modifications: here or on the partner: phosphorylated by CaMKIIα at Ser residues in the central linker region (positions not given); phosphorylated by CaMKIIα at Ser residues in the central linker region (positions not given)
Regarding B2, in assay [1], the stoichiometry N was determined as 4.
